T1: PUF4 RNA-binding domain (Saccharomyces cerevisiae, UniProt P25339 537-888)
T1 sequence: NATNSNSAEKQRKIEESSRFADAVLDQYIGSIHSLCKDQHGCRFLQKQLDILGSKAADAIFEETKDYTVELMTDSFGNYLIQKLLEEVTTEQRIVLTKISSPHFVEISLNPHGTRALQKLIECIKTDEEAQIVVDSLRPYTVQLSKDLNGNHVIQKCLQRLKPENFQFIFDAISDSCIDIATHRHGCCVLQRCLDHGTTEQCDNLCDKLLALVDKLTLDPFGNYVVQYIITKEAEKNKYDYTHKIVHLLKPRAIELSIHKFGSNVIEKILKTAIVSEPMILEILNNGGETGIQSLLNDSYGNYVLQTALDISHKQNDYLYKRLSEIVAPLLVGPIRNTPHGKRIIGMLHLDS


biological target: T1, PUF4 RNA-binding domain; assay: Mg; RNA-MaP; 20 mM Na-HEPES pH 7.4, 30 mM KOAc, 0.75 mM MgCl2, 0.1% Tween-20, 5% glycerol, 0.1 mg/mL BSA, 2 mM DTT; 25 C; 0.0125-409.6 nM protein; details: tags: N-His6-TEV cleaved; C-SNAP kept, Cy3B-labelled; label: tethered on chip by stalled RNA polymerase

Row | Binder | Kd [µM]
1 | Ic_S2_P5E.1_K5.1_C5.1_H5.1_A5.1_[T6A]_[A7T]_F5.1_[T8C]_[T9A]_[A10G]_T5.1 (ssRNA) RNA: UUUGAUUAAUAUGAUAUCGUUCUUUCUUGUAUAUCAGUUCUUUCUCGAUAUCAUAUUAAUCUUU | 0.0245
2 | Ic_S2_P5E.1_K5.1_C5.1_H5.1_A5.1_[T6A]_[A7T]_F5.1_[T8C]_[T9C]_[A10T]_T5.1 (ssRNA) RNA: UUUGAUUAAUAUGAUAUCGUUCUUUCUUGUAUAUCCUUUCUUUCUCGAUAUCAUAUUAAUCUUU | 0.0103
3 | Ic_S2_P5E.1_K5.1_C5.1_H5.1_A5.1_[T6A]_[A7C]_F5.1_[T8C]_[T9G]_[A10G]_T5.1 (ssRNA) RNA: UUUGAUUAAUAUGAUAUCGUUCUUUCUUGUAUACCGGUUCUUUCUCGAUAUCAUAUUAAUCUUU | 0.082
4 | Ic_S2_P5E.1_K5.1_C5.1_H5.1_A5.1_[T5C]_[T6G]_[A7T]_F5.1_[T8C]_[A10G]_T5.1 (ssRNA) RNA: UUUGAUUAAUAUGAUAUCGUUCUUUCUUGUACGUCUGUUCUUUCUCGAUAUCAUAUUAAUCUUU | 1.25
5 | Ic_S2_P5E.1_K5.1_C5.1_H5.1_A5.1_[T5A]_F5.1_[T8C]_[T9G]_[A10C]_T5.1 (ssRNA) RNA: UUUGAUUAAUAUGAUAUCGUUCUUUCUUGUAAUACGCUUCUUUCUCGAUAUCAUAUUAAUCUUU | 1.05
6 | Ic_S2_P5E.1_K5.1_C5.1_H5.1_A5.1_[T5A]_[T6A]_F5.1_[T9C]_[A10T]_T5.1 (ssRNA) RNA: UUUGAUUAAUAUGAUAUCGUUCUUUCUUGUAAAAUCUUUCUUUCUCGAUAUCAUAUUAAUCUUU | 0.0815
7 | Ic_S2_P5E.1_K5.1_C5.1_H5.1_A5.1_[T5G]_[A7T]_F5.1_[T9A]_[A10T]_T5.1 (ssRNA) RNA: UUUGAUUAAUAUGAUAUCGUUCUUUCUUGUAGUUUAUUUCUUUCUCGAUAUCAUAUUAAUCUUU | 0.00193
8 | Ic_S2_P5E.1_K5.1_C5.1_H5.1_A5.1_[T5C]_[A7C]_F5.1_[T8C]_[T9C]_[A10T]_T5.1 (ssRNA) RNA: UUUGAUUAAUAUGAUAUCGUUCUUUCUUGUACUCCCUUUCUUUCUCGAUAUCAUAUUAAUCUUU | 0.104
9 | Ic_S2_P5E.1_K5.1_C5.1_H5.1_A5.1_[T5A]_[T6A]_[A7T]_F5.1_[T8A]_[T9C]_[A10G]_T5.1 (ssRNA) RNA: UUUGAUUAAUAUGAUAUCGUUCUUUCUUGUAAAUACGUUCUUUCUCGAUAUCAUAUUAAUCUUU | 0.052
10 | Ic_S2_P5E.1_K5.1_C5.1_H5.1_A5.1_[T5G]_[T6C]_[A7T]_F5.1_[T8C]_[T9G]_[A10T]_T5.1 (ssRNA) RNA: UUUGAUUAAUAUGAUAUCGUUCUUUCUUGUAGCUCGUUUCUUUCUCGAUAUCAUAUUAAUCUUU | 0.275
11 | Ic_S2_P5E.1_K5.1_C5.1_H5.1_A5.1_[T5G]_F5.1_[T8A]_[A10T]_T5.1 (ssRNA) RNA: UUUGAUUAAUAUGAUAUCGUUCUUUCUUGUAGUAAUUUUCUUUCUCGAUAUCAUAUUAAUCUUU | 0.342
12 | Ic_S2_P5E.1_K5.1_C5.1_H5.1_A5.1_[T5C]_[T6A]_[A7T]_F5.1_[T8C]_[T9G]_[A10G]_T5.1 (ssRNA) RNA: UUUGAUUAAUAUGAUAUCGUUCUUUCUUGUACAUCGGUUCUUUCUCGAUAUCAUAUUAAUCUUU | 0.315
13 | Ic_S2_P5E.1_K5.1_C5.1_H5.1_A5.1_[T5A]_[A7T]_F5.1_[T8A]_[A10C]_T5.1 (ssRNA) RNA: UUUGAUUAAUAUGAUAUCGUUCUUUCUUGUAAUUAUCUUCUUUCUCGAUAUCAUAUUAAUCUUU | 0.113
14 | Ic_S2_P5E.1_K5.1_C5.1_H5.1_A5.1_[T5A]_[T6C]_[A7G]_F5.1_[T8G]_[T9C]_[A10C]_T5.1 (ssRNA) RNA: UUUGAUUAAUAUGAUAUCGUUCUUUCUUGUAACGGCCUUCUUUCUCGAUAUCAUAUUAAUCUUU | > 2.3
15 | Ic_S2_P5E.1_K5.1_C5.1_H5.1_A5.1_[T6G]_[A7T]_F5.1_[T8C]_[T9A]_[A10T]_T5.1 (ssRNA) RNA: UUUGAUUAAUAUGAUAUCGUUCUUUCUUGUAUGUCAUUUCUUUCUCGAUAUCAUAUUAAUCUUU | 0.064
16 | Ic_S2_P5E.1_K5.1_C5.1_H5.1_A5.1_[T5C]_[T6C]_[A7T]_F5.1_[T8A]_[A10T]_T5.1 (ssRNA) RNA: UUUGAUUAAUAUGAUAUCGUUCUUUCUUGUACCUAUUUUCUUUCUCGAUAUCAUAUUAAUCUUU | 0.0096
17 | Ic_S2_P5E.1_K5.1_C5.1_H5.1_A5.1_[T6C]_F5.1_[T8G]_[A10C]_T5.1 (ssRNA) RNA: UUUGAUUAAUAUGAUAUCGUUCUUUCUUGUAUCAGUCUUCUUUCUCGAUAUCAUAUUAAUCUUU | 0.218
18 | Ic_S2_P5E.1_K5.1_C5.1_H5.1_A5.1_[T5G]_[A7T]_F5.1_[T8C]_[A10T]_T5.1 (ssRNA) RNA: UUUGAUUAAUAUGAUAUCGUUCUUUCUUGUAGUUCUUUUCUUUCUCGAUAUCAUAUUAAUCUUU | 0.126
19 | Ic_S2_P5E.1_K5.1_C5.1_H5.1_A5.1_[A7C]_F5.1_[T9G]_[A10G]_T5.1 (ssRNA) RNA: UUUGAUUAAUAUGAUAUCGUUCUUUCUUGUAUUCUGGUUCUUUCUCGAUAUCAUAUUAAUCUUU | 0.0235
20 | Ic_S2_P5E.1_K5.1_C5.1_H5.1_A5.1_[T6C]_F5.1_[T8A]_[A10G]_T5.1 (ssRNA) RNA: UUUGAUUAAUAUGAUAUCGUUCUUUCUUGUAUCAAUGUUCUUUCUCGAUAUCAUAUUAAUCUUU | 0.122
21 | Ic_S2_P5E.1_K5.1_C5.1_H5.1_A5.1_[T6C]_[A7C]_F5.1_[T9A]_[A10T]_T5.1 (ssRNA) RNA: UUUGAUUAAUAUGAUAUCGUUCUUUCUUGUAUCCUAUUUCUUUCUCGAUAUCAUAUUAAUCUUU | 0.00114
22 | Ic_S2_P5E.1_K5.1_C5.1_H5.1_A5.1_[T5C]_[A7T]_F5.1_[T8C]_[T9C]_[A10C]_T5.1 (ssRNA) RNA: UUUGAUUAAUAUGAUAUCGUUCUUUCUUGUACUUCCCUUCUUUCUCGAUAUCAUAUUAAUCUUU | 0.149

Row | Binder | Kd [µM]
23 | Ic_S2_P5E.1_K5.1_C5.1_H5.1_A5.1_[T6C]_[A7T]_F5.1_[T8A]_[T9C]_[A10G]_T5.1 (ssRNA) RNA: UUUGAUUAAUAUGAUAUCGUUCUUUCUUGUAUCUACGUUCUUUCUCGAUAUCAUAUUAAUCUUU | 0.0261
24 | Ic_S2_P5E.1_K5.1_C5.1_H5.1_A5.1_[T5A]_[T6A]_F5.1_[T8C]_[T9A]_[A10C]_T5.1 (ssRNA) RNA: UUUGAUUAAUAUGAUAUCGUUCUUUCUUGUAAAACACUUCUUUCUCGAUAUCAUAUUAAUCUUU | 0.128
25 | Ic_S2_P5E.1_K5.1_C5.1_H5.1_A5.1_[T6C]_[A7C]_F5.1_[T8A]_[T9G]_[A10C]_T5.1 (ssRNA) RNA: UUUGAUUAAUAUGAUAUCGUUCUUUCUUGUAUCCAGCUUCUUUCUCGAUAUCAUAUUAAUCUUU | 1.56
26 | Ic_S2_P5E.1_K5.1_C5.1_H5.1_A5.1_[T5C]_[T6A]_[A7G]_F5.1_[T9G]_[A10C]_T5.1 (ssRNA) RNA: UUUGAUUAAUAUGAUAUCGUUCUUUCUUGUACAGUGCUUCUUUCUCGAUAUCAUAUUAAUCUUU | 0.00913
27 | Ic_S2_P5E.1_K5.1_C5.1_H5.1_A5.1_[T6G]_[A7G]_F5.1_[T8C]_[A10C]_T5.1 (ssRNA) RNA: UUUGAUUAAUAUGAUAUCGUUCUUUCUUGUAUGGCUCUUCUUUCUCGAUAUCAUAUUAAUCUUU | 0.543
28 | Ic_S2_P5E.1_K5.1_C5.1_H5.1_A5.1_[T6C]_[A7G]_F5.1_[T8C]_[T9C]_[A10T]_T5.1 (ssRNA) RNA: UUUGAUUAAUAUGAUAUCGUUCUUUCUUGUAUCGCCUUUCUUUCUCGAUAUCAUAUUAAUCUUU | 0.463
29 | Ic_S2_P5E.1_K5.1_C5.1_H5.1_A5.1_[T5A]_F5.1_[T9G]_[A10G]_T5.1 (ssRNA) RNA: UUUGAUUAAUAUGAUAUCGUUCUUUCUUGUAAUAUGGUUCUUUCUCGAUAUCAUAUUAAUCUUU | 0.0752
30 | Ic_S2_P5E.1_K5.1_C5.1_H5.1_A5.1_[T5C]_[A7C]_F5.1_[T9C]_[A10T]_T5.1 (ssRNA) RNA: UUUGAUUAAUAUGAUAUCGUUCUUUCUUGUACUCUCUUUCUUUCUCGAUAUCAUAUUAAUCUUU | 0.0135
31 | Ic_S2_P5E.1_K5.1_C5.1_H5.1_A5.1_[T5A]_[T6C]_[A7T]_F5.1_[T8A]_[T9A]_T5.1 (ssRNA) RNA: UUUGAUUAAUAUGAUAUCGUUCUUUCUUGUAACUAAAUUCUUUCUCGAUAUCAUAUUAAUCUUU | 0.129
32 | Ic_S2_P5E.1_K5.1_C5.1_H5.1_A5.1_[T5A]_[T6C]_[A7C]_F5.1_[T8A]_[T9C]_[A10C]_T5.1 (ssRNA) RNA: UUUGAUUAAUAUGAUAUCGUUCUUUCUUGUAACCACCUUCUUUCUCGAUAUCAUAUUAAUCUUU | 1.06
33 | Ic_S2_P5E.1_K5.1_C5.1_H5.1_A5.1_[T6A]_[A7T]_F5.1_[T8C]_[T9G]_[A10G]_T5.1 (ssRNA) RNA: UUUGAUUAAUAUGAUAUCGUUCUUUCUUGUAUAUCGGUUCUUUCUCGAUAUCAUAUUAAUCUUU | 0.0491
34 | Ic_S2_P5E.1_K5.1_C5.1_H5.1_A5.1_[T5C]_[T6A]_[A7G]_F5.1_[A10G]_T5.1 (ssRNA) RNA: UUUGAUUAAUAUGAUAUCGUUCUUUCUUGUACAGUUGUUCUUUCUCGAUAUCAUAUUAAUCUUU | 0.00939
35 | Ic_S2_P5E.1_K5.1_C5.1_H5.1_A5.1_[T6A]_[A7T]_F5.1_[T8A]_[T9C]_[A10G]_T5.1 (ssRNA) RNA: UUUGAUUAAUAUGAUAUCGUUCUUUCUUGUAUAUACGUUCUUUCUCGAUAUCAUAUUAAUCUUU | 0.00849
36 | Ic_S2_P5E.1_K5.1_C5.1_H5.1_A5.1_[T5G]_[T6C]_[A7C]_F5.1_[T9C]_T5.1 (ssRNA) RNA: UUUGAUUAAUAUGAUAUCGUUCUUUCUUGUAGCCUCAUUCUUUCUCGAUAUCAUAUUAAUCUUU | 0.0748
37 | Ic_S2_P5E.1_K5.1_C5.1_H5.1_A5.1_[T5G]_[A7G]_F5.1_[T8C]_[T9C]_T5.1 (ssRNA) RNA: UUUGAUUAAUAUGAUAUCGUUCUUUCUUGUAGUGCCAUUCUUUCUCGAUAUCAUAUUAAUCUUU | 0.983
38 | Ic_S2_P5E.1_K5.1_C5.1_H5.1_A5.1_[T5A]_[T6C]_[A7C]_F5.1_[T8G]_T5.1 (ssRNA) RNA: UUUGAUUAAUAUGAUAUCGUUCUUUCUUGUAACCGUAUUCUUUCUCGAUAUCAUAUUAAUCUUU | 0.0129
39 | Ic_S2_P5E.1_K5.1_C5.1_H5.1_A5.1_[T5C]_[A7C]_F5.1_[A10T]_T5.1 (ssRNA) RNA: UUUGAUUAAUAUGAUAUCGUUCUUUCUUGUACUCUUUUUCUUUCUCGAUAUCAUAUUAAUCUUU | 0.00852
40 | UCUCUUCGUAUAUUUUCUCUU (ssRNA) [Ib_S1_P4E.1_K4.1_C4.1_H4.1_[T1C]_A4.1_F4.1_[A9T]_T4.1] | 1.42
41 | UCUCUUUUUAUAUUGUCUCUU (ssRNA) [Ib_S1_P4E.1_K4.1_C4.1_H4.1_[G2T]_A4.1_F4.1_[A9G]_T4.1] | > 2.3
42 | UCUCUUUAUAUAUUCUCUCUU (ssRNA) [Ib_S1_P4E.1_K4.1_C4.1_H4.1_[G2A]_A4.1_F4.1_[A9C]_T4.1] | 0.857
43 | UCUCUUUAUAUAUUGUCUCUU (ssRNA) [Ib_S1_P4E.1_K4.1_C4.1_H4.1_[G2A]_A4.1_F4.1_[A9G]_T4.1] | 0.334
